Biological target: T1, MBP-human TRIM25-Flag (human, UniProt Q14258 1-630)
T1 construct: human TRIM25
Test: pull-down
Conditions: both partners purified

T1 sequence (Q14258 whole entry): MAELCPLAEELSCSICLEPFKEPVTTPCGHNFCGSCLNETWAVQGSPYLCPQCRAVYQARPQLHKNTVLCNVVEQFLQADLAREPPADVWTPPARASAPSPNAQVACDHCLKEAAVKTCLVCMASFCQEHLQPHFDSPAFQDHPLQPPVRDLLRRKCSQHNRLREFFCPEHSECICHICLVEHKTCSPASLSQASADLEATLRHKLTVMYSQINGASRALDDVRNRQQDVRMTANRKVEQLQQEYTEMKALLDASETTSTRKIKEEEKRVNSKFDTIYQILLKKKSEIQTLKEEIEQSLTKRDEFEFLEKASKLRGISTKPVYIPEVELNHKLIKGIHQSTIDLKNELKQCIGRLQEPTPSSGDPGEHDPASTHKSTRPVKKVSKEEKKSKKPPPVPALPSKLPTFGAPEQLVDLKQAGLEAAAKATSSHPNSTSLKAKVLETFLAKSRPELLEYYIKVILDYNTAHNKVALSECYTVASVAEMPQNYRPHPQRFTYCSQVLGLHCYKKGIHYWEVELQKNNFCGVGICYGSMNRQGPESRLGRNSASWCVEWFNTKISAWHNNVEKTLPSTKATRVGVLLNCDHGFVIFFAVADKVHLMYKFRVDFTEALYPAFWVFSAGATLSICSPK

B1: Glutathione-S-transferase (GST)-NS1 fusion protein (PR8) (natural protein)
chain: MDPNTVSSFQVDCFLWHVRKRVADQELGDAPFLDRLRRDQKSLRGRGSTLGLDIETATRAGKQIVERILKEESDEALKMTMASVPASRYLTDMTLEEMSRDWSMLIPKQKVAGPLCIRMDQAIMDKNIILKANFSVIFDRLETLILLRAFTEEGAIVGEISPLPSLPGHTAEDVKNAVGVLIGGLEWNDNTVRVSETLQRFAWRSSNENGRPPLTPKQKREMAGTIRSEV
notes: source: bacteria, purified
B1: binds.
